Data on nine molecules can be found in patent publication US20240226230A1 (MAYO FOUNDATION FOR MEDICAL EDUCATION AND RESEARCH, published 2024).

Common to all, as to experiment: co-IP of GFP-tagged KPNB1 truncations, western blot
Background: Immunoblotting shows a protein as a band on a membrane.

For experiment [1], the target named is endogenous Ran (human, UniProt P62826 2-216). From the text: (§1) FIG. 21A) Schematic domain structure of KPNB1. KPNB1 is comprised of 19 HEAT repeats (H1-19). RanGTP and importin-α interact with H1-8 and H8-19, respectively. FG-Nups bind to two regions of KPNB1, H5-7 and H14-16. FIG. 21B) Lysates from HEK293T cells expressing GFP, GFP-KPNB1 full-length (FL), N-terminal fragments of KPNB1 (H1-9 . . . H1) or the C-terminal fragment of KPNB1 (H10-19) were subjected to immunoprecipitation with GFP-Trap magnetic beads. Whole cell lysates (input) and immunoprecipitates (IP) were subjected to western blot analysis using indicated antibodies. KPNB1 H1-8, the smallest fully active KPNB1 fragment in reducing TDP-43 aggregation, strongly interacts with FG-Nups and Ran, and weakly with importin-al in comparison with full-length KPNB1. FIG. 21C) (Top) Schematic domain structure of KPNB1 H1-8^mNIS harboring four missense mutations (1178A, F217A, Y255A, I263R) in the nucleoporin-interacting site (NIS). (Bottom) Lysates from HEK293T cells expressing GFP, GFP-KPNB1 H1-8^WT or H1-8^mNIS were subjected to immunoprecipitation with GFP-Trap magnetic beads. Whole cell lysates (input) and immunoprecipitates (IP) were subjected to western blot analysis using indicated antibodies. […] Hoechst staining was used to outline nuclei. Scale bar: 5 μm. […] Statistical analysis was performed using one-way ANOVA and Bonferroni's post hoc test (**p<0.01, ***p<0.001, n=4). FIG. 21F) IF of HEK293T cells co-expressing GFP-(GR)₁₀₀ with an empty plasmid (ctrl), FLAG-tagged KPNB1 H1-8^WT or H1-8^mNIS and stained for endogenous TDP-43. Unlike KPNB1 H1-8^mNIS, KPNB1 H1-8^WT prevents the sequestration of endogenous TDP-43 in cytoplasmic GR aggregates. Arrowheads point to cytoplasmic GR aggregates. Hoechst staining was used to outline nuclei. Scale bar: 5 μm.

Experiment [2] deals with T1, endogenous Nup50 (human, UniProt Q9UKX7 1-468, limits assumed).
T1 construct: Detected with anti-Nup50
T1 sequence (looked up): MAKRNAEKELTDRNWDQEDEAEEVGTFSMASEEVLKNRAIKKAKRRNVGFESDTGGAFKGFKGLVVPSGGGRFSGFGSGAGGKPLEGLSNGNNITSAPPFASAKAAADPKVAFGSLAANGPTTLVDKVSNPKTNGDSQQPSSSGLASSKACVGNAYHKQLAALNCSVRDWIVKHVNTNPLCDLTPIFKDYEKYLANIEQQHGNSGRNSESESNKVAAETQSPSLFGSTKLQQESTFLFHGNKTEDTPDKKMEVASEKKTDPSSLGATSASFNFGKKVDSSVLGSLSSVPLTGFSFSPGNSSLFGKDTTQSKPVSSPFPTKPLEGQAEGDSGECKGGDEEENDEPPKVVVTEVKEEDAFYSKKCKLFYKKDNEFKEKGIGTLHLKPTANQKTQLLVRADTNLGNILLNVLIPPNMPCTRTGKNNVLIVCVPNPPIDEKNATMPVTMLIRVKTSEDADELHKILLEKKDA
Excerpt: as §1

Experiment [3] deals with T2, endogenous Nup62 (human, UniProt P37198 2-522).
T2 construct: Detected with anti-Nup62
T2 sequence (looked up): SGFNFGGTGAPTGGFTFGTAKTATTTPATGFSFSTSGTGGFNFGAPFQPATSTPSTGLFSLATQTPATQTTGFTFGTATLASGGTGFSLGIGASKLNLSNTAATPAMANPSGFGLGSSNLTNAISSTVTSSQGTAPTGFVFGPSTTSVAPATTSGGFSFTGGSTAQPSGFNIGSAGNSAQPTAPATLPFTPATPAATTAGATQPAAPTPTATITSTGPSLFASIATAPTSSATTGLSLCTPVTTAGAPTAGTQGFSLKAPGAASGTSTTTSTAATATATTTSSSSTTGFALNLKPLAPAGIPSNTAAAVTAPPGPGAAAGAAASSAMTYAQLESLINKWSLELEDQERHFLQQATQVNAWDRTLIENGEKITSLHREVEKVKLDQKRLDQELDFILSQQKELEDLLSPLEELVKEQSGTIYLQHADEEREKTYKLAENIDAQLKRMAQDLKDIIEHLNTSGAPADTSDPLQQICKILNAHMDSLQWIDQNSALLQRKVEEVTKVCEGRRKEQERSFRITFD
Excerpt: as §1

The target of experiment [4] is endogenous importin-α1 (human, UniProt P52292 2-529).
Excerpt: as §1

Where no end group is shown, it is not given here.

B1: GFP-KPNB1 H1-4 (receptor)
chain: GGGSGGGSGGGSMELITILEKTVSPDRLELEAAQKFLERAAVENLPTFLVELSRVLANPGNSQVARVAAGLQIKNSLTSKDPDIKAQYQQRWLAIDANARREVKNYVLQTLGTETYRPSSASQCVAGIACAEIPVNQWPELIPQLVANVTNPNSTEHMKESTLEAIGYICQDIDPEQLQ
notes: not shown: GFP/EGFP tag (pEGFP-C1, Clontech)
Turning to B1, the binding result in experiment [1], in experiment [2], in experiment [3] and in experiment [4] was “no binding” each time.

B2: GFP-KPNB1 H1-2 (receptor)
chain: GGGSGGGSGGGSMELITILEKTVSPDRLELEAAQKFLERAAVENLPTFLVELSRVLANPGNSQVARVAAGLQIKNSLTSKDPD
notes: as for B1
Turning to B2, the binding result in experiment [1], in experiment [2], in experiment [3] and in experiment [4] was “no binding” each time.

B3: GFP-KPNB1 H1-9 (receptor)
chain: GGGSGGGSGGGSMELITILEKTVSPDRLELEAAQKFLERAAVENLPTFLVELSRVLANPGNSQVARVAAGLQIKNSLTSKDPDIKAQYQQRWLAIDANARREVKNYVLQTLGTETYRPSSASQCVAGIACAEIPVNQWPELIPQLVANVTNPNSTEHMKESTLEAIGYICQDIDPEQLQDKSNEILTAIIQGMRKEEPSNNVKLAATNALLNSLEFTKANFDKESERHFIMQVVCEATQCPDTRVRVAALQNLVKIMSLYYQYMETYMGPALFAITIEAMKSDIDEVALQGIEFWSNVCDEEMDLAIEASEAAEQGRPPEHTSKFYAKGALQYLVPILTQTLTKQDENDDDDDWNPCKAAGVCLMLLATCCEDDIVPHVLPFIKEHIKNPDWRYRDAAVMAFGCILEGP
notes: also called N-terminal half of KPNB1 (HEAT repeats 1-9); not shown: GFP/EGFP tag (pEGFP-C1, Clontech)
On to B3, for which the binding result in experiment [1], in experiment [2], in experiment [3] and in experiment [4] was “binds” each time.

B4: GFP-KPNB1 H1-6 (receptor)
chain: GGGSGGGSGGGSMELITILEKTVSPDRLELEAAQKFLERAAVENLPTFLVELSRVLANPGNSQVARVAAGLQIKNSLTSKDPDIKAQYQQRWLAIDANARREVKNYVLQTLGTETYRPSSASQCVAGIACAEIPVNQWPELIPQLVANVTNPNSTEHMKESTLEAIGYICQDIDPEQLQDKSNEILTAIIQGMRKEEPSNNVKLAATNALLNSLEFTKANFDKESERHFIMQVVCEATQCPDTRVRVAALQNLVKIMSLYY
notes: as for B1
On to B4, for which the binding result in experiment [1], in experiment [2], in experiment [3] and in experiment [4] was “no binding” in each case.

B5: GFP-KPNB1 H1-5 (receptor)
chain: GGGSGGGSGGGSMELITILEKTVSPDRLELEAAQKFLERAAVENLPTFLVELSRVLANPGNSQVARVAAGLQIKNSLTSKDPDIKAQYQQRWLAIDANARREVKNYVLQTLGTETYRPSSASQCVAGIACAEIPVNQWPELIPQLVANVTNPNSTEHMKESTLEAIGYICQDIDPEQLQDKSNEILTAIIQGMRKEEPSNNVKLAATNALLNSLEFTKANF
notes: as for B1
B5: the binding result in experiment [1], in experiment [2], in experiment [3] and in experiment [4] was “no binding” in each case.

B6: GFP-KPNB1 H1-3 (receptor)
chain: GGGSGGGSGGGSMELITILEKTVSPDRLELEAAQKFLERAAVENLPTFLVELSRVLANPGNSQVARVAAGLQIKNSLTSKDPDIKAQYQQRWLAIDANARREVKNYVLQTLGTETYRPSSASQCVAGIACAEIPVNQWP
notes: as for B1
Take B6: the binding result in experiment [1], in experiment [2], in experiment [3] and in experiment [4] was “no binding” each time.

B7: GFP-KPNB1 H1-8 (receptor)
chain: GGGSGGGSGGGSMELITILEKTVSPDRLELEAAQKFLERAAVENLPTFLVELSRVLANPGNSQVARVAAGLQIKNSLTSKDPDIKAQYQQRWLAIDANARREVKNYVLQTLGTETYRPSSASQCVAGIACAEIPVNQWPELIPQLVANVTNPNSTEHMKESTLEAIGYICQDIDPEQLQDKSNEILTAIIQGMRKEEPSNNVKLAATNALLNSLEFTKANFDKESERHFIMQVVCEATQCPDTRVRVAALQNLVKIMSLYYQYMETYMGPALFAITIEAMKSDIDEVALQGIEFWSNVCDEEMDLAIEASEAAEQGRPPEHTSKFYAKGALQYLVPILTQTLTKQDENDDDDDWNPCKAAGVCLMLLATCCED
notes: also called GFP-KPNB1 H1-8^WT; not shown: GFP/EGFP tag (pEGFP-C1, Clontech)
In the case of B7, the binding result in experiment [1], in experiment [2] and in experiment [3] was “binds” throughout.

B8: GFP-KPNB1 H1-7 (receptor)
chain: GGGSGGGSGGGSMELITILEKTVSPDRLELEAAQKFLERAAVENLPTFLVELSRVLANPGNSQVARVAAGLQIKNSLTSKDPDIKAQYQQRWLAIDANARREVKNYVLQTLGTETYRPSSASQCVAGIACAEIPVNQWPELIPQLVANVTNPNSTEHMKESTLEAIGYICQDIDPEQLQDKSNEILTAIIQGMRKEEPSNNVKLAATNALLNSLEFTKANFDKESERHFIMQVVCEATQCPDTRVRVAALQNLVKIMSLYYQYMETYMGPALFAITIEAMKSDIDEVALQGIEFWSNVCDEEMDLAIEASEAAEQGRPP
notes: as for B1
Regarding B8, the binding result in experiment [1], in experiment [2], in experiment [3] and in experiment [4] was “no binding” in each case.

B9: GFP-KPNB1 H1 (receptor)
chain: {GFP}-GGGSGGGSGGGSMELITILEKTVSPDRLELEAAQKFLERAAVEN
modifications: also: GFP tag fused N-terminally, not in chain, (GGGS)3 linker in chain
notes: as for B1
For the molecule B9, the binding result in experiment [1], in experiment [2], in experiment [3] and in experiment [4] was “no binding” in each case.
